From patent US20230052680A1 (DIZAL JIANGSU PHARMACEUTICAL, published 2023)
Values belong to the binder of their own block, whether it stands above or below them.

Tests used:
[1] = molecular target: T1, recombinant cyno FGFR2b-Fc (Cynomolgus monkey); test: ELISA, plate coated with 0.1 ug/ml cyno FGFR2b-Fc, anti-human IgG HRP detection
T1 construct: also called Cynomolgus monkey FGFR2b ECD-murine Fc; cynomolgus FGFR2b
Procedure: (§1) The cross-species binding of Ab 36c to recombinant cyno, rat/mouse, and human FGFR2b-Fc fusion proteins was conducted with ELISA. In brief, 96-well ELISA plate were coated with about 100 ul/well 0.1 μg/ml recombinant human FGFR2b-Fc, recombinant rat/mouse FGFR2b-Fc, or recombinant cyno FGFR2b-Fc protein in PBS overnight. Then the plate was blocked with 2% BSA in PBS with 0.05% Tween20 and incubation with antibody samples for 60 min at room temperature, and then washed twice in 1×TBST (Cell Signaling Technology, #9997) and followed by incubation with anti-human lgG HRP (Horseradish peroxidase) conjugate for 60 min at a room temperature. HRP activity was detected with tetra-methylbenzidine substrate (Cell Signaling Technology, #7004) and the reaction was stopped with stop solution (Cell Signaling Technology, #7002). The plate was read at 450 nm. […] Ab 36c has the highest binding affinity to rat/mouse FGFR2b, followed by human FGFR2b, and then cyno FGFR2b.

[2] = molecular target: T2, recombinant rat/mouse FGFR2b-Fc (rat); test: ELISA, plate coated with 0.1 ug/ml rat/mouse FGFR2b-Fc, anti-human IgG HRP detection
T2 construct: also called rat FGFR2b fused with murine Fc
Procedure: as §1

[3] = molecular target: T3, recombinant human FGFR4-Fc (human, UniProt P22455 22-369); test: ELISA, plate coated with HuFGFR4
T3 construct: Bought (R&D Systems); not shown: human Fc of the bought fusion protein; not described
T3 sequence (looked up): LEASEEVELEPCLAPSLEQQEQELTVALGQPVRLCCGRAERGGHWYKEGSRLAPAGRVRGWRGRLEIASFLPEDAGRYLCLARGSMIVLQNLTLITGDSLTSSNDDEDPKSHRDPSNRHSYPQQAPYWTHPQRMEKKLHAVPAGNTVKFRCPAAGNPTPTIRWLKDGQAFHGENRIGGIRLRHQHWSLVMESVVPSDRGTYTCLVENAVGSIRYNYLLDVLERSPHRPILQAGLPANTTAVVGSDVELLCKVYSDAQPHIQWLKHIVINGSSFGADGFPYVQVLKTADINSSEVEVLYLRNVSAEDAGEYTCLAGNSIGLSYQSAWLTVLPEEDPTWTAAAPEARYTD

[4] = molecular target: T4, recombinant human FGFR3b-Fc (human, UniProt P22607-2 23-377); test: ELISA, plate coated with HuFGFR3b
T4 construct: Bought (R&D Systems); not shown: human Fc of the bought fusion protein; not described
T4 sequence (looked up): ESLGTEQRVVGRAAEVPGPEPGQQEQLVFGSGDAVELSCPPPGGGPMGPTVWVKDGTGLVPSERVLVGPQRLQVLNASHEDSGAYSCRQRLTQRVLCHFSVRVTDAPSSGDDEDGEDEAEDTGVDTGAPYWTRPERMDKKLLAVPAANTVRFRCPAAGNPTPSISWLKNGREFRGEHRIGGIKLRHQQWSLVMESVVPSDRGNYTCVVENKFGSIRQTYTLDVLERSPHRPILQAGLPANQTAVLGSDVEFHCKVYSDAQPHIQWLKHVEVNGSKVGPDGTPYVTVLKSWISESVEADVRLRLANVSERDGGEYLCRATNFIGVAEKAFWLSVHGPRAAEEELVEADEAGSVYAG

[5] = molecular target: T5, recombinant human FGFR1b-Fc (human, UniProt P11362-19 22-376, limits assumed); test: ELISA, plate coated with HuFGFR1b
T5 construct: Bought (R&D Systems); not shown: human Fc of the bought fusion protein; not described
T5 sequence (looked up): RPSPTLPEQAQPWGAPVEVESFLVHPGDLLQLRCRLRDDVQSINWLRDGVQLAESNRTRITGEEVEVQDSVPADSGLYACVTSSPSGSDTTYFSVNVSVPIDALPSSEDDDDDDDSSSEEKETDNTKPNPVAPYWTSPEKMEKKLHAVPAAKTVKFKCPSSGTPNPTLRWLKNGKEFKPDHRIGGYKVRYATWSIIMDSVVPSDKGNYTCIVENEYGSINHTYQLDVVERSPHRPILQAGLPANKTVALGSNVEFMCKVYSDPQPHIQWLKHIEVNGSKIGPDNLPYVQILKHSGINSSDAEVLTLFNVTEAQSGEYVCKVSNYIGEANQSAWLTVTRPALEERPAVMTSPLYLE

[6] = molecular target: T4, recombinant human FGFR3b-Fc; test: ELISA on FGFR family Fc fusion proteins
[7] = molecular target: T5, recombinant human FGFR1b-Fc; test: ELISA on FGFR family Fc fusion proteins
[8] = molecular target: T3, recombinant human FGFR4-Fc; test: ELISA on FGFR family Fc fusion proteins

- EC50 (read off the curve) [1]: ~0.4 nM
- EC50 (read off the curve) [2]: ~0.2 nM
B1: Ab 36c (antibody, V domains shown)
VH: QPYLQQSGAELVRPGASVKMSCKASGYTFTSYNMHWVKQTPRQGLEWIGAIFPENGDTSYNQKFKGKATLTVDKSSSTAYMQLSSLTSEDSAVYFCARGGFDYWGQGTTLTVSS
VL: DIVMTQSHKFMSTSVGDRVSITCKASQDVSTNVAWYQQKPGQSPKLLIFSASYRYTGVPDRFAGSGSGTDFTFTISSVQAEDLAVYYCQQHYSSPYTFGGGTKLDIK
notes: Chimeric: mouse VH and VL fused to human heavy and light chain constant regions; also called chimeric Ab 36; Ab c 36c

- binding result [3]: no binding
- binding result [4]: no binding
- binding result [5]: no binding
B2: Ab 36 (antibody, V domains shown)
VH: QPYLQQSGAELVRPGASVKMSCKASGYTFTSYNMHWVKQTPRQGLEWIGAIFPENGDTSYNQKFKGKATLTVDKSSSTAYMQLSSLTSEDSAVYFCARGGFDYWGQGTTLTVSS
VL: DIVMTQSHKFMSTSVGDRVSITCKASQDVSTNVAWYQQKPGQSPKLLIFSASYRYTGVPDRFAGSGSGTDFTFTISSVQAEDLAVYYCQQHYSSPYTFGGGTKLDIK
notes: Mouse monoclonal antibody from a hybridoma; also called mouse Ab 36; antibody 36

- binding result [6]: no binding
- binding result [7]: no binding
- binding result [8]: no binding
B3: Ab hu36-2 (antibody, human IgG1, V domains shown)
VH: QVQLVQSGAEVKKPGSSVKVSCKASGYTFTSYNMHWVRQAPGQGLEWIGAIFPENGDTSYNQKFKGRATITADKSTSTAYMELSSLRSEDTAVYYCARGGFDYWGQGTTVTVSS
VL: DIQMTQSPSSLSASVGDRVTITCKASQDVSTNVAWYQQKPGKAPKLLIFSASYRYTGVPSRFSGSGSGTDFTFTISSLQPEDIATYYCQQHYSSPYTFGQGTKLEIK
notes: Humanized antibody with human IgG1
